Results as given in patent US20220412989A1, “COMPOSITIONS AND METHODS FOR DETECTING CELLS UNDERGOING FERROPTOSIS USING AN ANTIBODY” (THE TRUSTEES OF COLUMBIA UNIVERSITY IN THE CITY OF NEW YORK, priority 2020, published 2022).
“Also recorded” adds a separate entry of the source.

Assays:
HT-1080 cells = experiment: Flow cytometry antibody staining without permeabilization; format: cell-based, human
Procedure: HT-1080 cells were treated with DMSO or 1 μM RSL3 for 4 h. The cells were harvested by 0.25% Trypsin-EDTA (1×) (Invitrogen 25200-114) and washed with HBSS once. The cells were resuspended in 5% goat serum (ThermoFisher 50197Z) for 30 min on ice. The cells were incubated with mAb 3F3 FMA (1:500 dilution), Transferrin Receptor/CD71 Monoclonal Antibody, Clone: H68.4, Invitrogen (Thermo Fisher Scientific Cat #13-6800, RRID:AB_2533029, 1:250 dilution), CD71 (3B8 2A1) (Santa Cruz Biotechnology Cat #sc-32272, RRID:AB_627167, 1:50 dilution), Anti-Malondialdehyde antibody (Abcam Cat #ab6463, RRID:AB_305484, 1:400 dilution), Anti-4 Hydroxynonenal antibody (Abcam Cat #ab46544, RRID:AB_722493, 1:50 dilution), and mouse mAb 1F83 (1:100 dilution), which specifically recognizes the malondialdehyde (MDA)-lysine adduct 4-methyl-1,4-dihydropyridine-3,5-dicarbaldehyde (MDHDC) (Yamada et al., 2001) for 1 h on ice. The cells were washed with HBSS for 5 min three times by centrifugation. […] Fluorescence intensity was measured on the FL1 channel with gating to record live cells only (gate constructed from DMSO treatment group). A minimum of 10,000 cells were analyzed per condition. […]

[1] = molecular target: T1, transferrin receptor protein 1 (Homo sapiens, UniProt P02786); experiment: Antigen identification by immunoprecipitation-mass spectrometry; format: binding; settings: HT-1080 cell lysate
T1 construct: First, we incubated 3F3-FMA with a cell lysate overnight; endogenous in cells; host or cells: HT-1080 (ATCC CRL-7951)
Procedure: HT-1080 cells were seeded in DMEM (Corning 10-013-CM) and 10% Hi-FBS with 1% penicillin and streptomycin (PS) with 1% MEM Non-Essential Amino Acids Solution (100×) (Thermo Fisher Scientific 11140-076) 16 h prior to use. DMSO or 1 μM of RSL3 was added and incubated for 4 h. Following treatment, the medium was aspirated from each dish and cells were washed twice with PBS. Cells were lysed with 70 μl lysis buffer (RIPA buffer from ThermoFisher, cat. 89900, 1 mM EDTA, 1 mM PMSF, 1× Halt™ protease inhibitor cocktail from ThermoFisher, cat. 78430 and 1× Halt™ phosphatase inhibitor cocktail from ThermoFisher, cat. 78426). Unlysed cells and debris were pelleted for 15 min at 16,000×g at 4° C. The samples were incubated with 10 μg of 3F3 FMA overnight at 4° C. with shaking. […]
Trypsin digestion was performed overnight at 37° C. […] CID fragmentation was applied with 35% collision energy and resulting fragments were detected using the rapid scan rate in the ion trap. […]
Raw mass spectrometric data were analyzed using MaxQuant v.1.6.1.0 (Cox and Mann, 2008) (MaxQuant, RRID:SCR_014485) and employed Andromeda for database search (Cox et al., 2011) at default settings with a few modifications. […]

T1 sequence (P02786 whole entry): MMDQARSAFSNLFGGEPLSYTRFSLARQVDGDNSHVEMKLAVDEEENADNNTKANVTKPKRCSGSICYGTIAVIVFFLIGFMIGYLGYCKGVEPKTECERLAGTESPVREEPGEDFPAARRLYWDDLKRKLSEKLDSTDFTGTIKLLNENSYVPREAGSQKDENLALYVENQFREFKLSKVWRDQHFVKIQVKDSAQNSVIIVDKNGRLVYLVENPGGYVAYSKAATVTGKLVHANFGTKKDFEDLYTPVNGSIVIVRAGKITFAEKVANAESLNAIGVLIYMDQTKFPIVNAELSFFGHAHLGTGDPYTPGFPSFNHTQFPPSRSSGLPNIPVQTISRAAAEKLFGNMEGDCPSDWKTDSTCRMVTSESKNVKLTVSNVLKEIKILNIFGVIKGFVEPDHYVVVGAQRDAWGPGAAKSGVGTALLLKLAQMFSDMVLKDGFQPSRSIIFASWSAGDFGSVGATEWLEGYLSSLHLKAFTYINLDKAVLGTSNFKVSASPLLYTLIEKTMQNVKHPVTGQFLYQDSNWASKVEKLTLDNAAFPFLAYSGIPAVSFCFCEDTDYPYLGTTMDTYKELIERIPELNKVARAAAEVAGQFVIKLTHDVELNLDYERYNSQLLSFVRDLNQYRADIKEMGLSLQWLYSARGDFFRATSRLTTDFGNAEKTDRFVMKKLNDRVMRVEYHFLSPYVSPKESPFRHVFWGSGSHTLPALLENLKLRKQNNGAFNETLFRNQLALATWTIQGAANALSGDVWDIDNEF

B1: 3F3-FMA: murine monoclonal IgG1 raised against ferroptotic membrane fractions; antigen is human transferrin receptor protein 1 (TfR1) (antibody, V domains shown)
VH: EVLLQQSGTELVRPGALVKLSCKASGFNIQDLYIHWVKQRPEQGLEWIGWIDPETDNTIYDPKFQGKASITADTSSNTAYLQLSSLTSEDTAMYYCSTGLLQWYFDVWGAGTAVTVSS
VL: DIVMTQSPSSLAMSIGQKVTMRCKSSQSLLNSYNQKNCLAWYQQKPGQSPKLLLYFVSTRESGVPDRFIGSGSGTDFTLTISSVQAEDLADYFCQQHYSTPLTFGAGTKLELK
staining intensity in RSL3-treated cells by flow cytometry (HT-1080 cells; 1 μM RSL3, 4 h vs DMSO): increased intensities
staining intensity in STS-induced apoptosis by flow cytometry (HT-1080 cells; 1 μM STS, 6 h vs DMSO): decreased intensity; also recorded: decreased intensities
amino acid coverage of TfR1 [1]: 53%
confidence identification of transferrin receptor protein 1 as target antigen [1]: 63%
